# B1: anti-CROP gastrobody G9 (His6-Thrombin site-SpyTag003-gastrobody) (designed binder)
# chain: DFVLDNEGNPLENGGTYYILSHPDLFGGIRAAPTGNERCPLTVVQSLYLFDKGIGTIISSPYRIRFIAEGHPLSLKFDSFAVIMLCVGIPTEWSVVEDLPEGPAVKIGENKDAMDGWFRLERVSDDEFNNYKLVFCPQQAEDDKCGDIGISIDHDDGTRRLVVSKNKPLVVQFQKLDKESL
# B2: anti-CROP gastrobody G22 (His6-Thrombin site-SpyTag003-gastrobody) (designed binder)
# chain: DFVLDNEGNPLENGGTYYILSLQNRFGGIRAAPTGNERCPLTVVQSHDFMDKGIGTIISSPYRIRFIAEGHPLSLKFDSFAVIMLCVGIPTEWSVVEDLPEGPAVKIGENKDAMDGWFRLERVSDDEFNNYKLVFCPQQAEDDKCGDIGISIDHDDGTRRLVVSKNKPLVVQFQKLDKESL
# B3: anti-CROP gastrobody T42 (His6-Thrombin site-SpyTag003-gastrobody) (designed binder)
# chain: DFVLDNEGNPLENGGTYYILSVPHQFGGIRAAPTGNERCPLTVVQSRNKWDKGIGTIISSPYRIRFIAEGHPLSLKFDSFAVIMLCVGIPTEWSVVEDLPEGPAVKIGENKDAMDGWFRLERVSDDEFNNYKLVFCPQQAEDDKCGDIGISIDHDDGTRRLVVSKNKPLVVQFQKLDKESL
# Molecular target: combined repetitive oligopeptide domain of C. difficile toxin A (AviTag-His6-CROP) (Clostridium difficile, UniProt P16154 2304-2710)
# Experiment: SPR
# Conditions: both partners purified
row,Binder,Kd
1,B1,4.1 µM
2,B2,~50 µM
3,B3,6.2 µM

# Source: PMC8358037 (Communications Biology, 2021)
